B1: CPEB3 Ribozyme (parent)
chain: GGGGGCCACAGCAGAAGCGUUCACGUCGCGGCCCCUGUCAGAUUCUGGUGAAUCUGCGAAUUCUGCUGU

Variants of: B1
Assay: self-cleavage, relative activity (ratio to wild type); higher = more cleavage; co-transcriptional

Variant | self-cleavage
C33U G37U | 0.245
C34U G41U | 0.901
C34U G41C | 0.729
C35G U64A | 0.402
C35G G68U | 0.687
C34G U43A | 0.551
C33G U36C | 0.531
C35A G58C | 0.25
C35A G58A | 0.196
C35U U53C | 0.897
C35U U53G | 0.636
C33U G65C | 0.669
C33U G65A | 0.919
C35G G58A | 0.243
C34A G56A | 0.562
C34A G50A | 0.822
C34A G50C | 0.773
C33U C66U | 0.98
C33U C66A | 0.884
U36A C63A | 0.245
C35A C54G | 0.199
C35A U44A | 0.285
C35A U44G | 0.282
U36A U46C | 0.186

Variant | self-cleavage
C35U U44G | 0.835
U36A G48A | 0.269
U36A G68U | 0.248
C34A U43C | 0.496
U36A G56A | 0.231
C34U U43C | 0.892
C34U U43A | 0.967
C34A U67A | 0.883
C34A U67G | 0.903
C34A U67C | 0.938
C35G G50C | 0.401
C34A U38C | 0.492
C34A U38A | 0.846
C34A U38G | 0.232
C34U U67C | 1.01
C34U U67A | 1.01
C35G U38C | 0.286
C34U A52G | 1.01
C34U U55C | 0.823
C34A U64G | 0.629
C34G G68A | 0.931
C34G U53A | 0.569
C34A C39A | 0.346
C35U A40U | 0.717

Variant | self-cleavage
C35U A40C | 0.46
U36A U62C | 0.314
C35A U46C | 0.275
C35U C45U | 0.994
C35U C45A | 0.985
U36C G65U | 0.485
C33G G41A | 0.323
C33G G41C | 0.27
C35G U46A | 0.618
C35G U46G | 0.335
C35G U62C | 0.242
C34U C66G | 0.95
C35U C39U | 0.85
C33U C54A | 0.868
C33U C54G | 0.828
C35G U53A | 0.407
C34A A52U | 0.664
C34U U64A | 0.974
C35U U43G | 0.753
C34A U69C | 0.992
C33U G50U | 1
U36C C57U | 0.277
U36C G50A | 0.948
U36C G50U | 0.893

Variant | self-cleavage
C33G U69C | 0.972
C34G U67A | 0.847
C34A A51U | 0.521
C34A A51C | 0.615
C35U C54G | 0.72
C35U C54U | 0.929
C35G U36A | 0.21
C35G U36C | 0.36
C35G U36G | 0.189
U36A A59U | 0.146
C35A C45G | 0.179
C35A C45A | 0.22
C35A C45U | 0.261
C34G C63A | 0.424
C34G C63U | 0.666
C34G G65A | 0.58
C35G G48C | 0.531
C34A U49G | 0.865
C35U U67A | 0.95
U36A U64C | 0.298
U36A U43C | 0.186
C34A C45G | 0.427
C34A C45A | 0.528
C34G U36A | 0.192

Variant | self-cleavage
U36A G37C | 0.198
U36A G37U | 0.259
U36A G37A | 0.213
C33U G58A | 1
C33U G58C | 1.01
C33U G58U | 0.974
C33U | 0.994
C34G U69G | 0.926
C34U C63U | 1
C34U C63A | 0.869
C33U U67C | 0.971
C35A G68A | 0.358
U36A G58A | 0.205
C34G G58A | 0.463
C34G G58C | 0.654
C34G G58U | 0.772
C34A A40C | 0.291
C35A A40U | 0.231
C35A A40C | 0.288
C35A A40G | 0.212
U36A U61G | 0.147
U36A U61A | 0.137
C33G G56U | 0.458
C33G G56A | 0.496

Variant | self-cleavage
C33G C66G | 0.625
C35G U67C | 0.486
C33G U55C | 0.282
C35U U62C | 0.752
C34U C45A | 0.946
C35A G48A | 0.248
C35A G48C | 0.281
C35G U44G | 0.373
U36A U44A | 0.177
U36A U44G | 0.21
U36A A40U | 0.191
C34U G50U | 0.987
C35A U61C | 0.27
C35G A52G | 0.458
U36A A42G | 0.355
C33G U62C | 0.358
U36C A52G | 0.855
C34A U55A | 0.529
C33U C39G | 0.918
C33U C39U | 0.932
C33G U67A | 0.857
C33G U67G | 0.93
C34A C54A | 0.408
C34A C54G | 0.38

Variant | self-cleavage
C35U U55A | 0.82
C34A G58U | 0.881
C34A G58C | 0.556
U36A G41A | 0.146
C34A U36C | 0.568
C34A U36G | 0.316
C34U C57G | 0.261
C35A G41C | 0.237
C35U G37U | 0.258
C35U G37C | 0.22
C33G G68U | 0.861
C33G G68C | 0.877
C35U U64G | 0.874
C33U C35A | 0.233
C34G A60U | 0.39
C34G A60C | 0.331
C34G A60G | 0.407
C33U U43C | 0.939
U36C A51G | 0.914
C35G G41C | 0.295
C35G G41A | 0.294
C34U U38G | 0.227
C34U U38A | 0.935
C34U U38C | 0.962

Variant | self-cleavage
U36A C66G | 0.257
C34A U44A | 0.511
C34U G48C | 0.974
C34U G48A | 0.986
C33G U44A | 0.29
U36C U55A | 0.888
U36C U55G | 0.454
U36C U55C | 0.74
C34G G50A | 0.707
C35A U36A | 0.198
C34A G37C | 0.262
C34U U61C | 0.888
C34A U46A | 0.848
C34A U46C | 0.829
C34A C35A | 0.275
U36C U46G | 0.93
C34G G37C | 0.213
C35G G47A | 0.477
C35A | 0.281
C35U | 0.973
C35G | 0.478
C35A G65C | 0.191
C34A U61G | 0.426
U36C U43G | 0.662

Variant | self-cleavage
C33U U62C | 0.847
C33U U62A | 0.956
C33U U62G | 0.845
C34G U55A | 0.386
C34G U55C | 0.327
C34G U55G | 0.475
C34G U61A | 0.458
C34G U61G | 0.311
C33G U53C | 0.407
U36A C45U | 0.325
C33G U46A | 0.438
C34G A42G | 0.637
C34G A42U | 0.544
C35A G50C | 0.252
C35A G50A | 0.216
C35U G50U | 0.94
C35G U49A | 0.444
C35G U49G | 0.373
U36A G65A | 0.278
C35U U69A | 0.967
C33U C57A | 0.323
C33U C57G | 0.247
C35U A60G | 0.522
C35U A60C | 0.368

Variant | self-cleavage
C35U A60U | 0.395
C33U G41A | 0.827
C35A A60U | 0.181
C33U C34G | 0.258
C34G U46C | 0.625
C34A G65C | 0.485
C35U U61C | 0.625
C35A C39A | 0.209
U36C G68U | 1.01
C34G A52G | 0.771
C34G A52C | 0.618
C33G U43C | 0.391
C33G U43A | 0.299
C34A A60C | 0.313
C34A A60G | 0.44
C34A A60U | 0.292
C35U U49A | 0.969
C34G C39U | 0.439
C34G C39G | 0.455
C34U A59U | 0.778
C35A U69G | 0.356
C35A U38G | 0.291
C35A C63G | 0.22
C35A C63U | 0.251

Variant | self-cleavage
C35U C66U | 0.905
C35U C66G | 0.813
C35G C54A | 0.305
C35G C54U | 0.497
C34G U38C | 0.441
C34G U38G | 0.202
C34U U36A | 0.228
C35G G65C | 0.374
C35G G65A | 0.357
C33U A60C | 0.319
C34G U44A | 0.579
C35U G68A | 0.992
C33G G37C | 0.16
C35G U55A | 0.267
C35G U55G | 0.238
C35G U55C | 0.33
C34A G48A | 0.862
U36A C54A | 0.2
U36A C54G | 0.215
U36C G37A | 0.335
U36C C66U | 0.891
U36A A52C | 0.24
C33U G68A | 1.01
C33U G68U | 1.02

Variant | self-cleavage
U36A U49C | 0.22
C34A C66A | 0.634
C34U G37A | 0.224
C35U G65C | 0.568
C35G A42C | 0.308
C34U U53A | 0.975
C35A A51U | 0.223
C33U A52U | 0.922
C33U A52G | 0.993
C33G U38G | 0.324
C33G U38C | 0.45
C33U U44A | 1.01
C33U U44C | 0.938
C34U G65U | 0.824
U36C G58C | 0.834
U36C G58A | 0.731
C34U U62C | 0.896
C33G U49G | 0.692
U36C | 0.939
U36A | 0.25
C35G C57U | 0.287
C34G C57U | 0.348
C34G C57A | 0.311
C35G C39U | 0.263

Variant | self-cleavage
C35G C39G | 0.343
U36A U53C | 0.181
C35U A52C | 1.01
C35G U61G | 0.296
C35G U61C | 0.257
C34U G58C | 0.995
C34U G58U | 1
C34U G58A | 0.92
C35A A52U | 0.274
C33G G58A | 0.545
C35A C57G | 0.192
C35A C57A | 0.218
C35G A59C | 0.307
C35G A59G | 0.488
U36C C39A | 0.474
U36C C39U | 0.732
C35G C63U | 0.47
C35G C63G | 0.361
C35A U67A | 0.239
C35A U67G | 0.288
C33U U38A | 0.913
C34G G56C | 0.261
C34U G68U | 1.04
U36C C45U | 0.926

Variant | self-cleavage
C33U U55C | 0.685
C33U U55G | 0.8
C34A A59C | 0.302
U36C C63U | 0.856
U36A G50U | 0.232
U36C U38A | 0.376
U36C U38C | 0.631
C35U G41A | 0.635
C35U C57G | 0.302
C35U C57U | 0.373
C33U C45U | 0.976
U36A C39U | 0.237
U36A C39G | 0.15
C33U U36A | 0.218
C34G A59C | 0.291
C35G C66G | 0.437
U36A A51G | 0.249
U36A U69G | 0.347
C34A A42U | 0.491
C34A A42G | 0.765
C34G C66A | 0.411
C34G C66U | 0.643
